Measured values: the DeepSol protein solubility set

Test: soluble on expression in E. coli; label from the status in PepcDB or PDB records

Sequence	soluble on expression in E. coli
MGSDKIHHHHHHMFTRRFIPVVQSTKQNIGKYVRKDARFTLLTYNMLSPSYMWPQVYTYVAEPYKNWSYRHRLLEKELLNTFKADIMCLQEMTARDYEDYWHDSIGVDVNYGSKFISKTPPKYWKKPVKDMDGVSIFYNLAKFDFISSSGIYLNQLLNVFNQRELKYLYNKKVTLTDGASNVIGEDSLLDVLKGKNQVCLFVSLRHKETGTIFVVLNTHLYWKYDEVKLTQCMIIMRELSKIIKQLLPGDVKGQERVKILFTGDLNSTRDSLVVNFLQGQIVSHGDLNLINPMRPYLDRCVYDDIPKDYFVHTCYSGKLKGIFDYVWYHDSDFLLTKILTGNEVSDELLASNQLGLPNENHPSDHIPLLTEFKIL	not soluble
MGSDKIHHHHHHMFTVMDIVQPDTVEEAYSILNKRKTNQVIGGSAFLRMGKKRIGTGIELSKLNLDYIKEYEDYVEIGSMTTFRTLETSSIIKNNFGRIIEDSVKNIIGVQFRNVVTVGATVFSKYGFSDLIVALLSLDTEVELYNIGRISLEEFLNRDYEKDLLIKIYIKKTNKNASYKSLRNAKSDYPILNVSVSKHMEQFKLCVGARPQKATIAKQASEFLSNNEINEINIDKAVEIASEELTFGSNMRASREYRKAMSKVLLKRAIMEVI	not soluble
MGSDKIHHHHHHMFVGASEFRLTDAEHGLSFPVLVMYPTRQLPSRHAFGPYLMDVSMNAPIAGGQHPLILVSHGSGGSHLLYRTMTAHLAQHGYVVAMIEHPGNNRVDNQFMGKVENLQYRPRHLRLTADALYGDAVLGPHLQAGRIGVIGHSMGGYTALALAGGTPWYPPEAFQPDYRGPAPAVVDVEHDDRVKALVLLAPATVWFMPEHALEDVDVPILMLSAEHDPYTPAWHGEIVRKGVRDPANVTSRCVKNAGHFSFLSPFPPKIKQGGALPTIDPEGFDRERFHEQLKQEILAYFNLRLKTAPA	not soluble
MGSDKIHHHHHHMFVQHDERSRPCCCSFISFKYLKTTTPQEEEMPKKPKPNNFHDELNFARFGVISMHSRIDREVTSWKSEFTINGRTFRIEAITPEGRPHGIDTDTLVAVETLFVASSCPEDNWVHTTAYEMRELMGLGNNGDSYHRLRQSLRRLYLTSVIVGRKTSVANASGRVTWDNVGVRFLEGIRYRDAEDANALSMLDGEATLSIRLGEQLAASIRNGVSQVLDGQLLHQLEQPPARALYRTLQAHRRQDDGTLLDQLRVPLAEWRLATGLTTERTDLVRRALEAAHDELLANRYLEAVSIEGRGKKAYASYTFAERGAADPALVVLLRHAGVTVSRATALAAQHPERVEEACGFWKAAGPARAARYVIPAAWLRTSSRIQANISFRKSSSNLAVNVSSGCRS	not soluble
MGSDKIHHHHHHMFWFKNALIYRLTKSLDWSVENLQSQLQQCAYSPCQQSDMSRFGWSNPLRESESLSFCVGKQLLLVAHKEEKILPAQVIKRELEERIEQLEQKENRKLKKIEKQALKDDIVATLLPRAFSKNQHTALWIDTENNLIYIDTASTKRAEDCLALLRKSLGSLPVVPLAFANEPSLVMTNWVKENSPQWLTVLEEAELKGSQDQAVIRCKQQVLDSEEMIGLLNSGKYITNLSLNWEEHLSFTLNEDASLKRLKFADQIREQNDDISKEDFAQRFDADFVLMTGILAKLTENLLDEFGGEKERL	not soluble
MGSDKIHHHHHHMFWKKDPTVSWERKNINDIDFSRFNVAIIGGTGGLGRAISRELAQRNARVTVVGQTFRDEDLKDKINFVKADLSLVSECKRISHSDEIPYEELTHLIFTTGIFASRQRQATSEGLEKDMAVSYLSRYIIFHDVAKRLGISRTKKDDLPKVFIAGFPGNGQVGDPDDLNSDEKKYSAYATHMNTVAANESLVIDAKDRYTNIDTFGLNPGLIKTNIRNNLLGSDTYLSRITEWIISWTCQSAETYAKTICTLIASPAIESRSGTMFSNKGDAILPSPGLTKDVVEKFMENSELLVEKALRNQSPFTSSNE	not soluble
MGSDKIHHHHHHMFYYNQYVRAQSLDEAYELYQKKPNFVLGGMLWLKMKNKTLGTAIDLCDLGLDQIDEDENEFRIGAYATLRQIETHEALNAYTHGAIAESVRHIVGVQFRNVATVGGSIWGRFGFSDVMTIFRALGAKVQLHKAGIMDLDEFAALPRTTRDVLVSVIVPKNAKGVVYLSQRNQSTDFPVLTCAVANRSGRYVAVIGASPYMAEPVWDEDGILDGIADAKTDGNAALTDNSETNAKIDKFAEYVAEHIRFGSNIRAGAEYREIICRVLTRRAVTQSLDICDDIKHEH	not soluble
MGSDKIHHHHHHMGDAGGAGGNNMNIKQAKNEVKNTVKAYLSKDAHGEYVIPQIRQRPMLLIGPPGVGKTQIMEQIARECKIGLVAYTITHHTRQSAVGLPFIKEREYDGKSYSVTEYTMSEIIASVYEKMEATGLKEGILFIDEINCVSETLAPTMLQFLQCKTFGNQAVPKGWVIVAAGNPPEYNKSVRDFDMVTLDRVRYISIEADYQVWKEYARDVHIHDALLSYLELHPNNFYRVETDVDGMNFVTARGWEDLSSLLKVYEAGELAVTEEVIGEFIHHPDIAEDVYAYLEIYRKYNEDYGISDILSGNVKKSVYKRVFDADFDERITVVNLLLSGLTVVFSDVARERKMVQLWYEFLKEYRKSQRSTEEQHALYNSAVEQFSKNMEILKESSLILPKEYYIRQDVLKHIKGDFDTVMDDFTEESEKLSTMEDAAGEKLNHAFDFVEDVFSDDQEMLVFVTELTITPEISSFLAENECEKFDIYNEKLMVGSNRTRLLKELER	not soluble
MGSDKIHHHHHHMGEGLSVIGFDADDTLWQNESFFRLTEDKFAELLADFAEGAHLRERLLALETKNIGHYGFGIKGFMLSMIETAVEVTEGRVDGSVISKILEMGQDMLRHPIHLLPHVEETLGTLSDRYPLVLITKGDLLHQEQKLAASGLGDLFAGVEIVSAKLPSTYDTAFSVHGVGPKHAMMVGNSMKSDIRPALDAGAFAVYVPHGLTWELEHTETPVGHPRYHELPDLGGLIDLIETVTD	not soluble
MGSDKIHHHHHHMGGLGARHLYGSALGEHLVFKGGTSLSKAYQVIQRFSEDVDLTYDIRAIAPDLVGDDGEALPETRSEEKRWSSEVRKRLPNWVEGSVQPIIADALAAEALAAAIRVEGEKLFIDYAAATAGSGYVAPSVILEFGARSTGEPASLRDIACDASGLIEGVTFPTARPRVMHAERTFWEKATAIHVFCLQERLRGDRFARHWHDVARLDETGFTPSAFADRDLANAVARHKTMFFAEKAPDRTPIDYAAAVNGGLRLVPAGDGLKALEEDYARMVDDGLLLEDAEPFEALMARCADIAERANYIRE	not soluble
MGSDKIHHHHHHMGIGIIIASHGKFAEGIHQSGSMIFGEQEKVQVVTFMPNEGPDDLYGHFNNAIQQFDADDEILVLADLWSGSPFNQASRVAGENPDRKMAIITGLNLPMLIQAYTERLMDAGAGVEQVAANIIKESKDGIKALPEDLNPVEETAATEKVVNALQGAIPAGTVIGDGKLKINLARVDTRLLHGQVATAWTPASKADRIIVASDEVAQDDLRKQLIKQAAPGGVKANVVPISKLIEASKDPRFGNTHALILFQTPQDALRAVEGGVEINELNVGSMAHSTGKTMVNNVLSMDKEDVATFEKLRDLGVTFDVRKVPNDSKKNLFELIQKTNIK	not soluble
MGSDKIHHHHHHMGILQTMFIGFDYGTANCSVAVMRENTPQLLTLENGSTLLPSMLCAPTREAVSEWLYRHHDVPTHSDENQALLRRAIAANRDEDIEVLRNSVQFGLASLQQYVEDPQEVYFVKSPKSFLGASGLKPQQVALFEDLVCAMMLHIKLQAESQLPEQIDQAVIGRPINFQGLGGDEANAQAQGILERAAHRAGFRDVVFQFEPVAAGLDFEATLSEEKRVLVVDIGGGTTDCSLLLMGPQWRERADRQQSLLGHSGCRIGGNDLDIALAFKCLMPLLGMGGETEKGTALPILPWWNAVAINDVPAQSDFYSTANGRLLNDLLRSARDADKVALLLKVWRQRLSYRLVRSAEESKIALSSAASVETALPFIQDDLATAIAQQGLEAALDQPLTRIMEQVRLALDSSQTTPDVIYLTGGSARSPLIKKALAAQLPGIPLAGGDDFGSVTAGLARWAQVVFR	not soluble
MGSDKIHHHHHHMGKTTRKVQITGGSTFIVSLPPEWVKRNGITKGSEISISDDGNDLVISSSNPDLPEVSKKIIIPPNYTGKPLQRLLTSSYISGFDTLSIVSKEKMGSELRDDIKRFSKVVMGIEIIEETSKSVVLQNVLNVKTFPLSKAIRRMSLNVGTMIEDTIKAIEDYDEELFQNVIERDDEVDRYQWYIYREVKNHCQYEDSNVFMLVLSRILERMADHTVNICIAMKDRKAVNGRMEMIDNLKFSLDVYNHAVESFYSKNFKVLDGIINQKSEINERKFKLLKILSYDVVLSSIAEEISRIGLYGTDIAELAMDLILSDKLEFSVQ	not soluble
MGSDKIHHHHHHMGSSPARMSSGAPAPRVEVECLKAYSAPLEGRRGLLRLDFNENTIGPSPRVLEALRAIPADQIAVYPEYDGLREAVVANLSNRDQGRPGLTQPLSPSQIGLFNGVDAAIHAIFHAYGDRGDRLLTTSPTFGYYTPCAQMQGMKILAIPYEGSDFRFPLQVIRTLLQQKRPRLLLLCNPNNPTGTRLAPEQILELAVAAPETLVVVDELYEAFTGDSVLPQADFSVTPNLLVLRSLAKTAGLAGLRMGFAIGSADVIDRVSRVTGPYDINSFAVTAAFAALDDQAYVDAYVADVLKARDWISARLDASGVPYHLDGGNYLLIWPQQQPTEVEAALRKRGILVRLMTGKPLIDGSLRVSIGTIEQMQQFWQAFATVESLAA	not soluble
MGSDKIHHHHHHMGTVNRAVFLDRDGVINKDHGYVHQVDDFEYIEGVFEACLALKQQGYKLVVVTNQSGIARGMYTEDQFHSLTEWMDWNFADKGVDLDGIYYCPHHNEKGIGEYKVDCDCRKPKPGMLIDAAKFLKIDLSQSVMVGDKTDDMLAAKAAGVPTRILVRTGKAIADESDASVVLDSIADVPAFLKNHKAS	not soluble
MGSDKIHHHHHHMHACGDAVLFLPPNPFLDLRPVPHTSWARLPPMIRLAVLSDLHANLEATLAVHADVQRRGIQEIWVLGDLVGKGPRPREVVEWTQAHASRVIQGNWDARVAGATNRPQDLWPRSKLTPAQLAYLAGLPYGIEEQFSGAWWRFVHASSKGLFHRLYPHSSLAEQLEAYMPNPQFGLKVHADALVYADVHETLMLDVEGRPLINTGSVGNPLDSTLPSYLILEFDPHSPAHSATFVRLTYNRDAEIAAAEASGMPFTREYVAELLTGAYQKRRARTGE	not soluble
MGSDKIHHHHHHMHFDAETVTHRGGLSKLRSLTKVNPRLAPNLAKTMLGGPRDHAVVEAFNAHAADKGFEFTSTWASNNIPFVTPLLRDFAAKRPAGEAIRYMEIGAYEGRNLAFMDWLLPDRLAVTVIDPWFDEALNPEEKYHAVEPRFRRNMDKCGFKSLSTHKGFSTYVLPQMLERGEQFDLIYVDGSHTALAVLIDLCFCASLLSVGGMMVLDDYWHDISEIGGPGVKQAVDQFHAAFGRYFEIAAVYRQVALVKTSEIPR	not soluble
MGSDKIHHHHHHMHQGAHLDLDDGYQGDISNIGFIIGAKGVAVIDTGGSRQVGEALLSAIREITDLPVLYVINTHIHPDHIFGNAAFKQEHPVFIGHAKLPNAMALRGEAYLRQGQKLLGIQFSESEIIPPTQLVASFQELDIGGRKLLLTAYPNAHTNTDLTVLDETTGTLWTGDLLFIERAPSIDGDIKGWLSAIEDLQKLTGIQLAVPGHGPATQDLQGALSNQARYLNLLLHDVRKAIKQGHSMQQAMESAAASESGHWQLFHEVNRRNVNLIYPVLEWE	not soluble
MGSDKIHHHHHHMHSDEEIFKETTPKALLQLLKKDYYFHDYCYQEIIPRGKEIKMNNSKGFQIYLVESGYFSYCLQNEYGDSGIISFVGGEIAINLIPIIKEEPEESVLRSLTEVHCWVLDPDFVERVLDESGQKAKYLLSNLLYTRKVYFKASKRNFMKKELRIRACLKELGLYMGRVTKEKEFILPDEINNSILAQYANTTREYTNIIVLKLRKEGILDDSHKPWVIKKIDIL	not soluble
